Measurements: patent US20030092164A1
pKd: −log10 of the molar value.

Legend:
TACI receptor = assay: I^125-labeled ZTNF4 binding to baby hamster kidney cells transfected with a TACI expression vector; Scatchard analysis
Ztnfr12 (human) = assay: I^125-labeled ZTNF4 binding to baby hamster kidney cells transfected with Ztnfr12; Scatchard analysis

pKd (TACI receptor): 8.90
pKd (Ztnfr12 (human)): 9.00
Substance: ZTNF4 (ligand)
